Measured values published in publication PMC10315065 (Journal of Innate Immunity, 2023).

Target: human glyceraldehyde-3-phosphate dehydrogenase (GAPDH) (human, UniProt P04406 1-335, fluorescent dye NT-647 (Monolith NT Protein Labeling Kit RED-NHS))
Assay: MST

Chain of human glyceraldehyde-3-phosphate dehydrogenase (GAPDH) (P04406 whole entry): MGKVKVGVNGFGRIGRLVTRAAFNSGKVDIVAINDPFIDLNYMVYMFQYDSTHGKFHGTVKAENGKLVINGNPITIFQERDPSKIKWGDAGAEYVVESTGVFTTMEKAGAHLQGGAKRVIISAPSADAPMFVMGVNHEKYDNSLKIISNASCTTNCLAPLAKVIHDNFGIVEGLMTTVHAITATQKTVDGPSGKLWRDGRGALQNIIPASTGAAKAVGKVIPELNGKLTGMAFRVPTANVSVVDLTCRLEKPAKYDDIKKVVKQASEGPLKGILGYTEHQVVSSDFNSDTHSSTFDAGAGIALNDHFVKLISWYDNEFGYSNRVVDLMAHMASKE

**Q.** How did the Kd turn out when GLLRKGGEKIGEKLKKIGQKIKNFFQKLVPQPEQ [Mouse cathelicidin-related antimicrobial peptide] was run?
**A.** Its Kd is 472 nM.
